Biological target: the molecule itself
Test: crystal structure

B1: Rap1GAP Q204A (75–415) (domain or fragment)
chain: not shown
  stoichiometry N: 2

Reference: PMC2265111 (The EMBO Journal, 2008)
